For data set [1], the target named is T1, KlAH (Kluyveromyces lactis, UniProt Q6CP22).
T1 construct: gene KLLA0_E08119g; isolated allophanate hydrolase (AH) part, N and C domains, N-terminal part of KlUA; recombinant; homodimer
Put plainly: glutamate dehydrogenase-coupled NADH assay of ammonium. The class given is biochemical. The settings on record: AH activity; 6 mM MgCl2, 20 mM KCl, pH 8.0; substrate as potassium salt; read-out: Km^1. An excerpt: glutamate dehydrogenase-coupled NADH assay of ammonium on KlAH

Substrate in data set [2]: NC(=O)NC(=O)O
The data set is described as above. The settings on record: AH activity, 6 mM MgCl2, 20 mM KCl, pH 8.0, substrate as potassium salt. The data set is classed as biochemical, Kluyveromyces lactis. An excerpt: (§1) glutamate dehydrogenase-coupled NADH assay of ammonium on KlUA

Substrate in data set [3]: NC(N)=O
The data set is described as above. As to conditions: overall UA activity, 5 mM ATP, 12.5 mM bicarbonate, 11 mM MgCl2, 20 mM KCl, pH 8.0. The data set is classed as biochemical, Kluyveromyces lactis.
Description: as §1

Data set [4] deals with the molecule itself. Put plainly: SEC; analytical gel filtration, Superose 6 HR column; 0.25 mg protein injected; 20 mM Tris/HCl pH 8.0, 200 mM NaCl; calibrated with standards of 29-669 kDa.

One may read the Km as the concentration of substrate that gives half-maximal velocity. Usually kcat stands for the maximal rate divided by the concentration of active sites. One may read the kcat/Km as the second-order rate constant that governs catalysis at low substrate concentration. For orientation: stoichiometry N means the number of molecules, sites or subunits per partner or assembly.

In the case of `NC(=O)NC(=O)O` [allophanate], the Km in data set [1] is 432 ± 60 µM.

B1: Kluyveromyces lactis urea amidolyase, full length (enzyme, UniProt Q6CP22 1-1829, looked up)
chain: MESTLGWSVQDWLSFHSKSTPTKSLELLENLLKSQKPAPEDPAWISLIPVEDLHHQWNILQSKSNKEELPLYGVPIAVKDNIDYKGLPTTAACPSYLYQPTRDSYVVELLRDAGAVVIGKTNLDQFATGLVGTRSPYGKTPCVFNDKYVSGGSSAGSASVVGRGIVPLSLGTDTAGSGRVPAALNNLIGLKPTKGAFSCRGVVPACKSLDCVSVFALNLSDAEIAFKVMNKPDLLEDEYSREFPKNPISQYPKDLTIAIPKEVPWFGETENPKLYTKAVASLKNTGAKIVVVDFEPLLELARCLYEGAWVAERYCATRDFLATNPPESSLDETVVNIIKGAVKFDAADAFKFEYKRQGILQKVNLLLKDIDVLCVPTCPLNPKLEEVAQEPVLVNSRQGTWTNFVNLADLAALAVPSGFRSDGLPNGITLIGKKFSDYALLDLAKRFFSVAFPNNSRTYGKFVDRRITVEDELDGPSKDTLNGVKLAVVGAHLKGLPLHWQLQKCNATYLSSPKTSNNYKLYALPKVGPVLKPGLRRVNDGTGSQIQLEVYSVPYDRFGDFIAMVPEPLGIGSVELESGEWVKSFICEEFGYTQQGTVDITKFGGFKPYIEHIQVTEAQKKKPFETVLIANRGEIAVRIMKTLKRMGIKSVAVYSDPDKYSQHVTDADFSVALHGRTAAETYLDIDKIINAAKKTGAQAIIPGYGFLSENADFSDRCSQENIVFVGPSGDAIRKLGLKHSAREIAERAKVPLVPGSGLIKDAKEAKEVAKKLEYPVMVKSTAGGGGIGLQKVDSEDDIERVFETVQHQGKSYFGDAGVFMERFVNNARHVEIQMMGDGFGKAIAIGERDCSLQRRNQKVIEETPAPNLPEATRAKMRAASERLGSLLKYKCAGTVEFIYDEQRDEFYFLEVNARLQVEHPITEMVTGLDLVEWMLRIAANDSPDFDNTKIEVSGASIEARLYAENPVKDFRPSPGQLTSVSFPSWARVDTWVKKGTNVSAEYDPTLAKIIVHGKDRNDAIMKLNQALNETAVYGCITNIDYLRSIASSKMFKEAKVATKVLDSFDYKPCAFEVLAPGANTSVQDYPGRTGYWRIGVPPSGPMDSYSFRLANRVVGNNSKSPALEITLNGPKLLFHTETVIAVSGGTVSCTLNDAQIAQNEPIEVKRGDILSVGKVTVGCRAYLSIRGGIDVPEYLGSRSTFAMGNMGGYNGRILKLGDVLFLNQPELSVSSLPAPDFEPQAAPKSLLPTLSTNKDWKIGVTCGPHGSIDLFKEEYIEQFFNDKWKVHYNSNRFGVRLIGPKPKWARSDGGEAGLHPSNAHDYVYSLGAINFTGDEPVIITCDGPSLGGFVCQAVVAEAELWKVGQLTPGDTIQFVPLSYGVARQLKESQDKSIDNFEEGSLLELSDDKILPKYENPILAVLPKKSDLSPKVTYRQAGDRYILVEYGELEFDLNICYRINRLIHQVERHQTVGIVEMSQGVRSVLIEFDGSKINQKALLKCLIAYESEIQFDKNWNVKSKIFKLPMAFEDSKTLDCVTRYRETIRSEAPWLPNNVDFIADVNDIDRNDVKNMLYSAKFMVLGLGDVFLGSPCAVPLDPRHRYLGTKYNPSRTYTARGVVGIGGMYMCIYNAEGSPGGYQLVGRTITAWDKLVIGDHPIDHPWLLTPFDQVEFYPVTEEELEVIIEDNDNGKFKIDVEESIFDHKEYLAWINENIDSIVAFQEAQGGEKADEFARLIQVANAELKKSGDDKPQDVEEYPDDAELLYSEYTGRFWKPVAAVGDHVEAGDGVIIIEAMKTEMVVGATKSGKVYKILHKNGDMVEAGDLVAVIV
notes: urea amidolyase (AH domain followed by UC domain: BC, CT, BCCP) of Kluyveromyces lactis, gene amplified from the K. lactis genome; monomer 202 kDa; also called KlUA; full-length KlUA; source: expression and purification followed protocols reported previously [14,17]; purified
For B1, in data set [2], the Michaelis-Menten constant (Km) is 360 ± 37 µM, the kcat turned out to be 34.2 ± 0.683 s⁻¹ and the kcat/Km turned out to be 94900 ± 11700 M⁻¹ s⁻¹. Also, in data set [3], the Km was 255 ± 18 µM, the kcat stood at 13.9 ± 0.183 s⁻¹ and the kcat/Km came out at 54600 ± 4600 M⁻¹ s⁻¹. Moreover, the “stoichiometry N” value in data set [4] was found to be 2.

Source of the values: article PMC5770610, “Structure and function of urea amidolyase” (Bioscience Reports, 2018).
